For one molecule, Kd results are on record in article PMC6424611 (Journal of molecular biology, 2019).

Where no end group is shown, it is not given here.

Holding throughout (test): SPR
Background: In SPR one partner is held on a chip, and binding of the other changes the refractive index at the surface.

Experiment [1] concerns the target MBP-fused PDZ domain 2 of MAGI2 (human, UniProt Q86UL8 426-510).
The target in experiment [2] is T1, MBP-fused PDZ domain of SNTB1 (human, UniProt Q13884 112-195).
T1 sequence (looked up): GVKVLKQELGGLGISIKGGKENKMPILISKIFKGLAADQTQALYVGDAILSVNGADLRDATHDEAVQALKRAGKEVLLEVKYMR

Experiment [3] addresses T2, MBP-fused PDZ domain of SNTA1 (human, UniProt Q13424 87-170).
T2 sequence (looked up): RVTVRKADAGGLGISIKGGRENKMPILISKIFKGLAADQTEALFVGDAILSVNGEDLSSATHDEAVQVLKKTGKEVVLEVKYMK

Experiment [4] deals with T3, MBP-fused PDZ domain 1 of PDZRN3 (human, UniProt Q9UPQ7 249-339).
T3 sequence (looked up): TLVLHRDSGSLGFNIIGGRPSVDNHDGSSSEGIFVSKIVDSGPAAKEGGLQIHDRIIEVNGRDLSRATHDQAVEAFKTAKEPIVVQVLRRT

Experiment [5] concerns the target T4, MBP-fused PDZ domain of MAST2 (human, UniProt Q6P0Q8 1104-1192).
T4 sequence (looked up): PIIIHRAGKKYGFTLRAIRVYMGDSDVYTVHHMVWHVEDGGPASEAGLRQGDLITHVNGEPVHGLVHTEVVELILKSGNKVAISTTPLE

The target of experiment [6] is T5, MBP-fused PDZ domain of ARHGEF12 (human, UniProt Q9NZN5 72-151).
T5 sequence (looked up): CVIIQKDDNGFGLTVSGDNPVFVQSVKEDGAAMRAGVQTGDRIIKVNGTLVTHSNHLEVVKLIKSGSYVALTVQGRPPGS

Experiment [7] addresses MBP-fused second PDZ domain of MAGI1 (human, UniProt Q96QZ7 472-554).
Experiment [8] deals with T6, MBP-fused PDZ domain 1 of PDZRN4 (human, UniProt Q6ZMN7 224-314).
T6 sequence (looked up): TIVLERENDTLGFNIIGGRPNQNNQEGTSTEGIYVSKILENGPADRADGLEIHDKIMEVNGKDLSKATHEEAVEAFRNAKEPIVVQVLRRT

Experiment [9] has as its target T7, MBP-fused PDZ domain of SYNJ2BP (human, UniProt P57105 13-100).
T7 sequence (looked up): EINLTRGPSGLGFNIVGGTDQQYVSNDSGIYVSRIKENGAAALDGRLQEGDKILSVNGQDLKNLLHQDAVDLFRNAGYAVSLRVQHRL

The target of experiment [10] is T8, MBP-fused PDZ domain 1 of NHERF3 (human, UniProt Q5T2W1 9-90).
T8 sequence (looked up): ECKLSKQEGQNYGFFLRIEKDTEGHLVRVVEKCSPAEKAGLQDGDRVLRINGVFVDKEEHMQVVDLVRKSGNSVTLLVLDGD

Sequence of MBP-fused second PDZ domain of MAGI1 (Q96QZ7 472-554): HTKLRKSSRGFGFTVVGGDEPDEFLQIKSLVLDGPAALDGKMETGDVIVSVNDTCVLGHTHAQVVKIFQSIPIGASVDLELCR
Sequence of MBP-fused PDZ domain 2 of MAGI2 (Q86UL8 426-510): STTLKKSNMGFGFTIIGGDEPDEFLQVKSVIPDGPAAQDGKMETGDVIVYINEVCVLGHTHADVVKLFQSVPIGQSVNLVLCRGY

With RSSRTRRETQL (not fully specified (N-terminus); also: biotinylated, position not given here) [biotinylated HPV16 E6 peptide], the dissociation constant (Kd) in experiment [1] worked out at 2900 ± 140 nM; in experiment [2], 27 ± 4 µM; in [3], 101 ± 40 µM; in experiment [4] it was 8.6 ± 1.6 µM; in experiment [5], 2500 ± 200 nM; in experiment [6] it was 10.9 ± 1.4 µM. For the same molecule, the equilibrium dissociation constant (Kd) amounted to 3.4 ± 0.8 µM in experiment [7], 6 ± 1.5 µM in [8], 33 ± 4 µM in [9] and 23 ± 3 µM in [10].

What is called Kd is the equilibrium constant for the complex coming apart. A high value points to lower affinity.
